In paper PMC10922771:

Experiments:
Assay in all cases: FXase
[1] = target: activated human factor IX (hFIXa) (human) (UniProt P00740)
[2] = target: activated human factor IX Padua (hFIXa-Padua, p.Arg384Leu) (human) (UniProt P00740)
[3] = target: activated FIX-403 (FIXa-403) (human) (UniProt P00740)
[4] = target: activated ET9 (ET9a; FIX-403 with p.Arg384Leu) (human) (UniProt P00740)

activated factor VIII (FVIIIa), from Advate, recombinant full-length FVIII activated with thrombin (complex)
Kd [1]: 7.8 nM | Kd [2]: 1.08 nM | Kd [3]: 2.08 nM | Kd [4]: 0.26 nM
